Target: MERS-CoV spike receptor binding domain (RBD), residues 367–606, His-tagged (MERS-CoV), K0BRG7
Experiment: SPR
Details: remark: other sources report otherwise

B1: human CD26 (dipeptidyl peptidase 4), residues 39–766, His-tagged, P27487 39-766 (receptor)
chain: SRKTYTLTDYLKNTYRLKLYSLRWISDHEYLYKQENNILVFNAEYGNSSVFLENSTFDEFGHSINDYSISPDGQFILLEYNYVKQWRHSYTASYDIYDLNKRQLITEERIPNNTQWVTWSPVGHKLAYVWNNDIYVKIEPNLPSYRITWTGKEDIIYNGITDWVYEEEVFSAYSALWWSPNGTFLAYAQFNDTEVPLIEYSFYSDESLQYPKTVRVPYPKAGAVNPTVKFFVVNTDSLSSVTNATSIQITAPASMLIGDHYLCDVTWATQERISLQWLRRIQNYSVMDICDYDESSGRWNCLVARQHIEMSTTGWVGRFRPSEPHFTLDGNSFYKIISNEEGYRHICYFQIDKKDCTFITKGTWEVIGIEALTSDYLYYISNEYKGMPGGRNLYKIQLSDYTKVTCLSCELNPERCQYYSVSFSKEAKYYQLRCSGPGLPLYTLHSSVNDKGLRVLEDNSALDKMLQNVQMPSKKLDFIILNETKFWYQMILPPHFDKSKKYPLLLDVYAGPCSQKADTVFRLNWATYLASTENIIVASFDGRGSGYQGDKIMHAINRRLGTFEVEDQIEAARQFSKMGFVDNKRIAIWGWSYGGYVTSMVLGSGSGVFKCGIAVAPVSRWEYYDSVYTERYMGLPTPEDNLDHYRNSTVMSRAENFKQVEYLLIHGTADDNVHFQQSAQISKALVDVGVDFQAMWYTDEDHGIASSTAHQHIYTHMSHFIKQCFSLP
modifications: here or on the partner: N229-linked carbohydrate
Kd: 16.7 nM
koff: 0.00299 s⁻¹
kon: 179000 M⁻¹ s⁻¹

From paper PMC7095341
